Source: paper PMC4525382, “Functional characterization and expression analysis of rice δ^1-pyrroline-5-carboxylate dehydrogenase provide new insight into the regulation of proline and arginine catabolism” (Frontiers in Plant Science, 2015)

Key:
[1] = target: T1, rice P5C dehydrogenase (OsP5CDH) (Oryza sativa, UniProt B9FLB9); assay: NAD(P)H absorbance at […] nm, kinetic analysis; type: biochemical
T1 construct: gene Os05g0536400; mature form lacking the 16-residue predicted mitochondrial transit peptide; N-terminal His6 tag (pET151, TEV-cleavable; tag without effect); E. coli BL21(DE3) pLysS; monomer 57,670 Da; homotetramer 259 kDa
T1 sequence (B9FLB9 17-550): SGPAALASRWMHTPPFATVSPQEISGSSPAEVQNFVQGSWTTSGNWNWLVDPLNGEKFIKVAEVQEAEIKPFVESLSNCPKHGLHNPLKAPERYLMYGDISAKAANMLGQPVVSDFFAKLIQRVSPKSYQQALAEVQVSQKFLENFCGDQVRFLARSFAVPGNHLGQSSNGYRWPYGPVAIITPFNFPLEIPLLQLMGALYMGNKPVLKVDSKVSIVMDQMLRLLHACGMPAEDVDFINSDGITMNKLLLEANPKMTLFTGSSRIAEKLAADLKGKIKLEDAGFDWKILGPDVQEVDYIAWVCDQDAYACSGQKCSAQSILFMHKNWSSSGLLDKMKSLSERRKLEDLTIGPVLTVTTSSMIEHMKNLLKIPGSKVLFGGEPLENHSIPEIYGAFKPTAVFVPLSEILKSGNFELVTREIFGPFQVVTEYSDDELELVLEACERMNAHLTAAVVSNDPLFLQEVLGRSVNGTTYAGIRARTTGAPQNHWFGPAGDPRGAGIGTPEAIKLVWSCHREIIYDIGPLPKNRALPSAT

[2] = target: T1, rice P5C dehydrogenase (OsP5CDH); assay: NAD(P)H absorbance at […] nm, non-linear regression; type: biochemical
[3] = target: rice P5C dehydrogenase, truncated version lacking the predicted mitochondrial transit peptide (Oryza sativa (rice)); assay: SEC; gel permeation on Superose 12 HR 10/30; 100 uL of purified protein at 0.5 mg/mL; 50 mM Tris-HCl pH 7.75, 250 mM NaCl (same pattern from 250 mM to 1 M NaCl); column calibrated with mass markers; six runs
purified protein [4] = substrate: NC(=O)c1ccc[n+]([C@@H]2O[C@H](COP(=O)(O)OP(=O)(O)OC[C@H]3O[C@@H](n4cnc5c(N)ncnc54)[C@H](O)[C@@H]3O)[C@@H](O)[C@H]2O)c1; assay: purified protein; type: biochemical, Oryza sativa; conditions: 1 mM L-P5C, 50 mM Hepes-KOH pH 7.5, 35 °C, varied: cofactor
purified protein [5] = substrate: NC(=O)c1ccc[n+]([C@@H]2O[C@H](COP(=O)(O)OP(=O)(O)OC[C@H]3O[C@@H](n4cnc5c(N)ncnc54)[C@H](OP(=O)(O)O)[C@@H]3O)[C@@H](O)[C@H]2O)c1; assay: purified protein; type: biochemical, Oryza sativa; conditions: 1 mM L-P5C, 50 mM Hepes-KOH pH 7.5, 35 °C, varied: cofactor
purified protein [6] = substrate: O=C(O)[C@@H]1CCC=N1; assay: purified protein; type: biochemical, Oryza sativa; conditions: 10 mM NAD+ co-substrate, 50 mM Hepes-KOH pH 7.5, 35 °C

Molecule `N=C(N)NCCC[C@H](N)C(=O)O` [arginine] has a Ki [1] of 62.3 ± 2.4 mM and an IC50 [2] of 87 ± 11 mM.

“rice P5C dehydrogenase, truncated version lacking the predicted mitochondrial transit peptide (enzyme)” showed a stoichiometry N [3] of 4.

B1: rice P5C dehydrogenase (OsP5CDH) (Oryza sativa Japonica Group) (protein)
chain: SGPAALASRWMHTPPFATVSPQEISGSSPAEVQNFVQGSWTTSGNWNWLVDPLNGEKFIKVAEVQEAEIKPFVESLSNCPKHGLHNPLKAPERYLMYGDISAKAANMLGQPVVSDFFAKLIQRVSPKSYQQALAEVQVSQKFLENFCGDQVRFLARSFAVPGNHLGQSSNGYRWPYGPVAIITPFNFPLEIPLLQLMGALYMGNKPVLKVDSKVSIVMDQMLRLLHACGMPAEDVDFINSDGITMNKLLLEANPKMTLFTGSSRIAEKLAADLKGKIKLEDAGFDWKILGPDVQEVDYIAWVCDQDAYACSGQKCSAQSILFMHKNWSSSGLLDKMKSLSERRKLEDLTIGPVLTVTTSSMIEHMKNLLKIPGSKVLFGGEPLENHSIPEIYGAFKPTAVFVPLSEILKSGNFELVTREIFGPFQVVTEYSDDELELVLEACERMNAHLTAAVVSNDPLFLQEVLGRSVNGTTYAGIRARTTGAPQNHWFGPAGDPRGAGIGTPEAIKLVWSCHREIIYDIGPLPKNRALPSAT
notes: mature form lacking the 16-residue predicted mitochondrial transit peptide; N-terminal His6 tag (pET151, TEV-cleavable; tag without effect); E. coli BL21(DE3) pLysS; monomer 57,670 Da; homotetramer 259 kDa
B1 was tested, and the Km (purified protein [4]) was 644 ± 30 µM, the Vmax (purified protein [4]) was 196.9 ± 2.1 nkat (mg protein)^−1 and the kcat (purified protein [4]) was 12 s⁻¹. For the same molecule, the Km (purified protein [5]) was 4695 ± 462 µM, the Vmax (purified protein [5]) was 49.2 ± 1.7 nkat (mg protein)^−1 and the kcat (purified protein [5]) was 3 s⁻¹. It also gave a Km (purified protein [6]) of 358 ± 14 µM.
